{
  "source": "patent CN117715654A",
  "about": "(OXFORD BIOTHERAPEUTICS LTD, dated 2024)",
  "binders": {"B1": {"name": "16A5(CD205_A1), DM4-conjugated anti-CD205 (anti-LY75) monoclonal antibody (antibody, V domains shown)", "VH": "EVQLVESGGGLVKPGGSLRLSCAASGFTYSNAWMSWVRQAPGKGLEWVGRIKSKTDGGTTDYAAPVQGRFTISRDDSKNTLYLQMNSLKTEDTAVYYCTIFGVVSFDYWGQGTLVTVSS", "VL": "DVQMTQSPSSLSASVGDRVTITCRASQSISDYLSWYQQRPGKAPNLLIYAASNLKTGVPSRFSGSGSGTDFTLTISTLQPEDFATYYCQQSYRSPWTFGQGTKVEIKR", "modifications": "conjugated to maytansinoid DM4; attachment residues not stated"}},
  "biological_target": "human CD205 (human)",
  "assay": "cell-based or functional assay",
  "data": [
    {"binder": "B1", "values": [
      {"measurement": "EC50 of cytotoxicity on Raji cells (Cell-Titer Glo, 96 h)", "result": 0.728, "unit": "nM"},
      {"measurement": "EC50 of cytotoxicity on THP1 cells (Cell-Titer Glo, 96 h)", "result": 0.0375, "unit": "nM"}
    ]}
  ]
}
